Reference: publication PMC8417293, “Impact of crowded environments on binding between protein and single-stranded DNA”

Key:
Conditions in all cases: protein: recombinant; single strand
[1] = target: T1, BsCspB (cold shock protein B) (UniProt P32081 1-67); assay: intrinsic Trp fluorescence quenching; dilute; 20 mM disodium phosphate pH 7.0, no added salt stated; fluorescence titration 298 K (0.5, 2.8 or 4 uM protein; table marks a/b not explained in the material); stopped-flow 288 K (60 or 300 nM protein); NMR 298 or 294.4 K with 5% D2O
[2] = target: T1, BsCspB (cold shock protein B); assay: intrinsic Trp fluorescence quenching; 300 g/L PEG1; 20 mM disodium phosphate pH 7.0, no added salt stated; fluorescence titration 298 K (0.5, 2.8 or 4 uM protein; table marks a/b not explained in the material); stopped-flow 288 K (60 or 300 nM protein); NMR 298 or 294.4 K with 5% D2O
[3] = target: T1, BsCspB (cold shock protein B); assay: intrinsic Trp fluorescence quenching; dilute (series a); 20 mM disodium phosphate pH 7.0, no added salt stated; fluorescence titration 298 K (0.5, 2.8 or 4 uM protein; table marks a/b not explained in the material); stopped-flow 288 K (60 or 300 nM protein); NMR 298 or 294.4 K with 5% D2O
[4] = target: T1, BsCspB (cold shock protein B); assay: intrinsic Trp fluorescence quenching; 300 g/L PEG1 (series a); 20 mM disodium phosphate pH 7.0, no added salt stated; fluorescence titration 298 K (0.5, 2.8 or 4 uM protein; table marks a/b not explained in the material); stopped-flow 288 K (60 or 300 nM protein); NMR 298 or 294.4 K with 5% D2O
[5] = target: T1, BsCspB (cold shock protein B); assay: intrinsic Trp fluorescence quenching; 300 g/L glucose; 20 mM disodium phosphate pH 7.0, no added salt stated; fluorescence titration 298 K (0.5, 2.8 or 4 uM protein; table marks a/b not explained in the material); stopped-flow 288 K (60 or 300 nM protein); NMR 298 or 294.4 K with 5% D2O
[6] = target: T1, BsCspB (cold shock protein B); assay: intrinsic Trp fluorescence quenching; dilute (series b); 20 mM disodium phosphate pH 7.0, no added salt stated; fluorescence titration 298 K (0.5, 2.8 or 4 uM protein; table marks a/b not explained in the material); stopped-flow 288 K (60 or 300 nM protein); NMR 298 or 294.4 K with 5% D2O
[7] = target: T1, BsCspB (cold shock protein B); assay: intrinsic Trp fluorescence quenching; 300 g/L ethylene glycol; 20 mM disodium phosphate pH 7.0, no added salt stated; fluorescence titration 298 K (0.5, 2.8 or 4 uM protein; table marks a/b not explained in the material); stopped-flow 288 K (60 or 300 nM protein); NMR 298 or 294.4 K with 5% D2O
[8] = target: T1, BsCspB (cold shock protein B); assay: intrinsic Trp fluorescence quenching; 100 g/L Dex20 (series b); 20 mM disodium phosphate pH 7.0, no added salt stated; fluorescence titration 298 K (0.5, 2.8 or 4 uM protein; table marks a/b not explained in the material); stopped-flow 288 K (60 or 300 nM protein); NMR 298 or 294.4 K with 5% D2O
[9] = target: T1, BsCspB (cold shock protein B); assay: intrinsic Trp fluorescence quenching; 200 g/L Dex20 (series b); 20 mM disodium phosphate pH 7.0, no added salt stated; fluorescence titration 298 K (0.5, 2.8 or 4 uM protein; table marks a/b not explained in the material); stopped-flow 288 K (60 or 300 nM protein); NMR 298 or 294.4 K with 5% D2O
[10] = target: T1, BsCspB (cold shock protein B); assay: intrinsic Trp fluorescence quenching; 300 g/L Dex20 (series b); 20 mM disodium phosphate pH 7.0, no added salt stated; fluorescence titration 298 K (0.5, 2.8 or 4 uM protein; table marks a/b not explained in the material); stopped-flow 288 K (60 or 300 nM protein); NMR 298 or 294.4 K with 5% D2O
[11] = target: T1, BsCspB (cold shock protein B); assay: intrinsic Trp fluorescence quenching; 100 g/L PEG8; 20 mM disodium phosphate pH 7.0, no added salt stated; fluorescence titration 298 K (0.5, 2.8 or 4 uM protein; table marks a/b not explained in the material); stopped-flow 288 K (60 or 300 nM protein); NMR 298 or 294.4 K with 5% D2O
[12] = target: T1, BsCspB (cold shock protein B); assay: intrinsic Trp fluorescence quenching; 200 g/L PEG1; 20 mM disodium phosphate pH 7.0, no added salt stated; fluorescence titration 298 K (0.5, 2.8 or 4 uM protein; table marks a/b not explained in the material); stopped-flow 288 K (60 or 300 nM protein); NMR 298 or 294.4 K with 5% D2O
[13] = target: T1, BsCspB (cold shock protein B); assay: intrinsic Trp fluorescence quenching; 200 g/L PEG8; 20 mM disodium phosphate pH 7.0, no added salt stated; fluorescence titration 298 K (0.5, 2.8 or 4 uM protein; table marks a/b not explained in the material); stopped-flow 288 K (60 or 300 nM protein); NMR 298 or 294.4 K with 5% D2O
[14] = target: T1, BsCspB (cold shock protein B); assay: intrinsic Trp fluorescence quenching; 100 g/L PEG1 (series b); 20 mM disodium phosphate pH 7.0, no added salt stated; fluorescence titration 298 K (0.5, 2.8 or 4 uM protein; table marks a/b not explained in the material); stopped-flow 288 K (60 or 300 nM protein); NMR 298 or 294.4 K with 5% D2O
[15] = target: T1, BsCspB (cold shock protein B); assay: intrinsic Trp fluorescence quenching; 300 g/L Dex20 (series a); 20 mM disodium phosphate pH 7.0, no added salt stated; fluorescence titration 298 K (0.5, 2.8 or 4 uM protein; table marks a/b not explained in the material); stopped-flow 288 K (60 or 300 nM protein); NMR 298 or 294.4 K with 5% D2O

T1 sequence (P32081 whole entry): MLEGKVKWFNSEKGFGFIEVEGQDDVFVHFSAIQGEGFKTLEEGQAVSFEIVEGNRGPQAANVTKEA

Row | Binder | Kd [1] [nM] | Kd [2] [nM] | Kd [3] [nM] | Kd [4] [nM] | Kd [5] [nM] | Kd [6] [nM] | Kd [7] [nM] | Kd [8] [nM] | Kd [9] [nM] | Kd [10] [nM] | Kd [11] [nM] | Kd [12] [nM] | Kd [13] [nM] | Kd [14] [nM] | Kd [15] [nM]
1 | TTTT (ssDNA) [dT4] | 6100 ± 300 | 17000 ± 1100 | – | – | – | – | – | – | – | – | – | – | – | – | –
2 | TTTTTT (ssDNA) [dT6] | 80 ± 10 | 580 ± 10 | 30 ± 10 | 415 ± 5 | – | – | – | – | – | – | – | – | – | – | –
3 | TTTTT (ssDNA) [dT5] | 750 ± 50 | 3800 ± 100 | – | – | 1310 ± 20 | 780 ± 10 | 5100 ± 400 | 710 ± 20 | 680 ± 20 | 350 ± 50 | – | – | – | – | –
4 | TTTTTTT (ssDNA) [dT7] | 15 ± 5 | 570 ± 30 | 7 ± 3 | 170 ± 5 | – | – | – | – | – | 6 ± 3 | 14 ± 7 | 75 ± 15 | 90 ± 20 | 10 ± 10 | 5 ± 3
